Paper PMC7057333 (ACS Omega, 2020)
Like-named read-outs stand apart in the source and are kept apart here. Numbered stars: 1 amine (or outer) side, 2 acyl side, 3 side chain; on linkers, the order of the positions; unused ones are H or OH. Bridge positions count the residues as written; N and C are the ends. Square brackets hold non-standard residues; d marks the D form. Ends that are not written are not given here. dNle(6-ylidene) = O=C([C@@H](CCCC=[*:3])N[*:1])[*:2]; Gly(pent-4-enyl) = C=CCCC[C@H](N)C(=O)O; Lys(N3) = [N-]=[N+]=NCCCC[C@H](N)C(=O)O; hPhe = N[C@@H](CCc1ccccc1)C(=O)O; Cit = NC(=O)NCCC[C@H](N)C(=O)O; AllylGly = C=CC[C@H](N)C(=O)O; Aoc(2) = CCCCCC[C@H](N)C(=O)O; Pra = C#CC[C@H](N)C(=O)O

Tests used:
[1] = target: T1, LSD1_(172-833), lysine-specific demethylase 1 (human, UniProt O60341-1 172-833); assay: SPR; LSD1 immobilised by amine coupling on CM5 (12 000-15 000 RU), peptides injected; TBS-T (25 mM Tris, 150 mM HCl as printed, 0.05% Tween-20, 1 mM DTT, pH 8.0), 15 °C; 1:1 Langmuir model or steady state; highest tested concentration 200 μM; conditions: both partners purified
[2] = target: T1, LSD1_(172-833), lysine-specific …; assay: cell-based or functional assay
[3] = target: T1, LSD1_(172-833), lysine-specific …; assay: SPR; LSD1 immobilised by amine coupling on CM5 (12 000-15 000 RU), peptides injected; TBS-T (25 mM Tris, 150 mM HCl as printed, 0.05% Tween-20, 1 mM DTT, pH 8.0), 15 °C; 1:1 Langmuir model or steady state; highest tested concentration 200 μM; conditions: both partners purified; remark: listed apart in the source
[4] = target: T1, LSD1_(172-833), lysine-specific …; assay: enzyme inhibition kinetics (HRP-coupled fluorescence demethylation assay); 25 nM LSD1, substrate H3K4me1_(1-21), 25 mM Tris, 50 mM NaCl, 0.1 mg/mL BSA, pH 8, 1% DMSO; Ki by global fit of competitive inhibition for 1, 11, 24, 28, 31, 33, 34, else from IC50 by Cheng-Prusoff (substrate 20 μM); conditions: both partners purified
[5] = target: T2, LSD1_(172-833), lysine-specific demethylase 1 (human, UniProt O60341-1 172-833); assay: cell-based or functional assay; remark: listed apart in the source
[6] = target: T2, LSD1_(172-833), lysine-specific …; assay: cell-based or functional assay; remark: listed apart in the source
[7] = target: T2, LSD1_(172-833), lysine-specific …; assay: enzyme inhibition kinetics (HRP-coupled fluorescence demethylation assay); 25 nM LSD1, substrate H3K4me1_(1-21), 25 mM Tris, 50 mM NaCl, 0.1 mg/mL BSA, pH 8, 1% DMSO; Ki by global fit of competitive inhibition for 1, 11, 24, 28, 31, 33, 34, else from IC50 by Cheng-Prusoff (substrate 20 μM); conditions: both partners purified; remark: listed apart in the source
[8] = target: T2, LSD1_(172-833), lysine-specific …; assay: SPR; LSD1 immobilised by amine coupling on CM5 (12 000-15 000 RU), peptides injected; TBS-T (25 mM Tris, 150 mM HCl as printed, 0.05% Tween-20, 1 mM DTT, pH 8.0), 15 °C; 1:1 Langmuir model or steady state; highest tested concentration 200 μM; conditions: both partners purified; remark: listed apart in the source

ARTKQTARKST-NH2 [H3_(1-11) K4 (peptide 9), wild-type 11-mer]
Kd [1]: > 100 µM

ARTMQTARKST [H3_(1-11) K4M (peptide 4)]
IC50 of inhibition of LSD1 demethylation of H3_(1-21) K4(Me), enzyme activity assay [2]: > 100 µM

PRTMQTARKST-NH2 [A1P-substituted H3_(1-11) K4M (peptide 11)]
Kd [3]: 10 µM
Ki [4]: 8 µM

AR[AllylGly]MQ[AllylGly]ARKST-NH2 (staple 3-6) [stapled peptide 21 (Thr3-Thr6 cyclization, 4-carbon olefin bridge)]
% inhibition of LSD1 demethylase activity at 100 μM peptide [5]: 95%

Ac-RTMQTARKSTGGKAPRKQLA [H3_(2-21) K4M (peptide 7)]
Kd [1]: 45 µM

ARTMQTARKSTGGKA [H3_(1-15) K4M (peptide 2)]
Kd [1]: 5 µM

[AllylGly]R[AllylGly]MQTARKST-NH2 [peptide 18, linear precursor of 19 (allylglycine at positions 1 and 3 of H3_(1-11) K4M)]
% inhibition of LSD1 demethylase activity at 100 μM peptide [5]: 98%

AR[Pra]MQ[Lys(N3)]ARKST-NH2 (triazole 3-6) [triazole 36 (triazole-bridged H3_(1-11) K4M, propargylglycine at 3, azidolysine at 6)]
% inhibition of LSD1 demethylase activity at 100 μM peptide [6]: 70%
Ki [7]: 30 µM

ARTMQTA [H3_(1-7) K4M (peptide 6)]
Kd [1]: > 200 µM

AR[Lys(N3)]MQ[Pra]ARKST-NH2 (triazole 3-6) [triazole 35 (triazole-bridged H3_(1-11) K4M, azidolysine at 3, propargylglycine at 6)]
% inhibition of LSD1 demethylase activity at 100 μM peptide [6]: < 30%
Ki [7]: > 100 µM

ART[Aoc(2)]QTARKST-NH2 [H3_(1-11) with 2-S-amino octanoic acid at position 4 (peptide 16)]
Kd [8]: > 200 µM

AR[Gly(pent-4-enyl)]MQ[Gly(pent-4-enyl)]ARKST-NH2 [peptide 22, linear precursor of 23 (pentenylglycine at positions 3 and 6 of H3_(1-11) K4M)]
% inhibition of LSD1 demethylase activity at 100 μM peptide [5]: 100%

AR[Gly(pent-4-enyl)]MQ[Gly(pent-4-enyl)]ARKST-NH2 (staple 3-6) [stapled macrocycle 23 (8-carbon olefin bridge between residues 3 and 6)]
% inhibition of LSD1 demethylase activity at 100 μM peptide [5]: 75%

ARTMQTARK [H3_(1-9) K4M (peptide 5)]
Kd [1]: > 200 µM

ART[hPhe]QTARKST-NH2 [H3_(1-11) with L-homophenylalanine at position 4 (peptide 17)]
Kd [8]: > 200 µM

AREMQKA[Cit]KST-NH2 (lactam 3-6) [lactam 34 (Arg8Cit-substituted analogue of peptide 28)]
% inhibition of LSD1 demethylase activity at 100 μM peptide [6]: 97%
Ki [7]: 8 µM

A[Cit]EMQKARKST-NH2 (lactam 3-6) [lactam 33 (Arg2Cit-substituted analogue of peptide 28)]
% inhibition of LSD1 demethylase activity at 100 μM peptide [6]: 97%
Ki [7]: 4.2 µM

ARTMQTARKSTGG [H3_(1-13) K4M (peptide 3)]
Kd [1]: 36 µM

[AllylGly]R[AllylGly]MQTARKST-NH2 (staple 1-3) [stapled peptide 19 (Ala1-Thr3 cyclization, 4-carbon olefin bridge)]
% inhibition of LSD1 demethylase activity at 100 μM peptide [5]: 100%

AR[dNle(6-ylidene)]MQ[dNle(6-ylidene)]ARKST-NH2 (staple 3-6) [stapled macrocycle 26 (stereoisomer of 23, D-pentenyl glycine at 3 and 6)]
% inhibition of LSD1 demethylase activity at 100 μM peptide [5]: 90%
